This is an account of results in US20130316910A1 (UNIVERSITY OF TOKYO, published 2013).

This assay has as its target T1, Bcl-2 protein having His tag on the C terminal side (UniProt P10415 1-211, limits assumed).
T1 construct: Immobilised through its His tag on a Ni-loaded SPR substrate; not shown: C-terminal His tag
The assay can be described thus: SPR, His-tagged Bcl-2 immobilised on Ni substrate, peptide in solution. How it is done: Next, a crosslinked peptide having the amino acid sequence as shown in the above table was synthesized by using a Fmoc solid-phase method and its binding ability was evaluated by calculating a dissociation constant (KD) in accordance with an evaluation method using SPR (Surface Plasmon Resonance).
Described specifically, first, a solution containing NiCl₂ was applied on a substrate to which Ni could be bound and then Bcl-2 protein having His tag on the C terminal side thereof was applied to immobilize the protein on the substrate. Then, a solution containing a solid-phase synthesized peptide was added successively while appropriately changing the concentration. During addition, a change in refractive index depending on the weight on the substrate was read and bond strength was evaluated based on the binding rate and dissociation rate of the peptide calculated.
(In SPR one partner is held on a chip, and binding of the other changes the refractive index at the surface.)

T1 sequence (P10415 1-211 limits assumed): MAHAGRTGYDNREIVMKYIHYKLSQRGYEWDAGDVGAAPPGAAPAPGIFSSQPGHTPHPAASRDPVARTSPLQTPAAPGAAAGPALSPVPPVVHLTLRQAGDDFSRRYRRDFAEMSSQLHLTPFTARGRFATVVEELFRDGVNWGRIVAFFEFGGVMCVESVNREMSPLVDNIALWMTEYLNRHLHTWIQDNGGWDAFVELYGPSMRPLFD

B1: A-1A (peptide)
peptide: Ac-FPHATIAARADSYDSYVRLAATFL-NH2
notes: by the library design Ala stands where the special amino acid and Cys would be
Broadly, the Kd is the constant that tells how readily two partners part at equilibrium. In turn, B1 yielded a Kd of 15 nM.

As for Ac-FPHATIAARADSYDSYVRLVATFR-NH2 [A-2A], the Kd amounted to 3.6 nM.

Turning to Ac-FFNRHNNAYYTAGYAALGRLYRLL-NH2 [A-4A], the Kd was ~14 nM.

Ac-FIIARFSALADSYDASRHIF-NH2 [A-5A] gave a Kd of 0.58 nM.
